# T1: ECD of human recombinant FLT3 (Fc-ECDhFLT3) (Homo sapiens, UniProt P36888)
# T1 construct: ECD of human or mouse recombinant FLT3 produced in NSO cell line; host or cells: NSO cell line
# T1 sequence (P36888 27-543 limits assumed): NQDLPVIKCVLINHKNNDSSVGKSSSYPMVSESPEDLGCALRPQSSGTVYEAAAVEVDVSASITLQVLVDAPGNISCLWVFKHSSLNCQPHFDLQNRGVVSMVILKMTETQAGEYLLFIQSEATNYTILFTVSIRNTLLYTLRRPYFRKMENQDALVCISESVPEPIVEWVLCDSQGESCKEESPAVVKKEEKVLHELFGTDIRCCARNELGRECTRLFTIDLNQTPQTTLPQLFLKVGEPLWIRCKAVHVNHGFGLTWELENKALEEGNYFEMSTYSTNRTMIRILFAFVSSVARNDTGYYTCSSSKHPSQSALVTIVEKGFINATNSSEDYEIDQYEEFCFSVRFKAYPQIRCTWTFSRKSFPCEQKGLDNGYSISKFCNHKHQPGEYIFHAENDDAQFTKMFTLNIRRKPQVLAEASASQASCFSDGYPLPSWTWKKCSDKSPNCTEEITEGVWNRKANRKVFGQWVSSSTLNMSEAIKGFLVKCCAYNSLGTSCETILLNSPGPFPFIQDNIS
# B1: A3 antibody: human monoclonal antibody against FLT3; VH SEQ ID NO:1, VL SEQ ID NO:2 (antibody, V domains shown)
# VH: EVQLVESGGSLVKPGGSLRLSCAASGFTFSNSYMNWVRQAPGKGLEWISDISGSSRDIDYADFVKGRFTISRDNATNSLYLQMNSLRAEDTAVYYCVRSGNSGMDVWGRGTLVTVSS
# VL: QSVLTQPASVSGSPGQSITISCAGTSSDVGGGYYVSWYQQHPGKAPKLMIYYDSYRPSGVSNRFSGSKSGNTASLTISGLQAEDEADYYCSSYTNNSTRVFGGGTKLEIK
# modifications: Synthetic VH domain of A3; Synthetic VL region of A3
# Target: T1, ECD of human recombinant FLT3 (Fc-ECDhFLT3)
# Test: ELISA binding to ECD of human recombinant FLT3
# Conditions: antibody at 10 μg/mL
# Description: The A3 antibody directed against FLT3 was produced by a phage display strategy and the antibody selection was performed by using ECD of human or mouse recombinant FLT3 produced in NSO cell line. To identify antibodies cross-reacting with both human and mouse FLT3, phages were selected by three rounds of panning, according to methods well known in the art (Philibert, P. et al. A focused antibody library for selecting scFvs expressed at high levels in the cytoplasm. BMC Biotechnol. 7, 81; 2007), first against the ECD of human FLT3, then against the ECD of mouse FLT3 and then against the ECD of human FLT3. A batch of one selected antibody named A3 was tested for its ability to bind to the ECD of human or mouse recombinant FLT3 using an ELISA technique.
molecule,measurement,value
B1,ELISA immunoreactivity against Fc-ECDhFLT3,generates immunoreactivity
